Results: patent publication US20250042970A1 (AURINIA PHARMACEUTICALS, published 2025)
Positions count from the first letter of the chain named. Like-named read-outs stand apart in the source and are kept apart here.

Legend:
FLAG-tagged human BAFF [1] = biological target: T1, FLAG-tagged human BAFF (human, UniProt Q9Y275 134-285, limits assumed); assay: BIACORE SPR; NB = No binding
T1 construct: used in BIACORE (Ex. 9) and KINEXA (Ex. 11); also called huBAFF
Protocol: (§1) For human BAFF, cynomolgus monkey APRIL, and mouse APRIL measurements, mouse monoclonal antibody (IgG1) anti-FLAG M2 (Sigma Aldrich, Cat. No. F1804) was immobilized on CM3 sensor chips (GE Healthcare, Cat. No. BR-1005-41) according to the manufacturer's protocol. Antibody was diluted to 30 μg/ml in immobilization buffer (10 mM pH 5±0.20; GE Healthcare; GE Healthcare, Catalog No. BR-1003-51). […] Unreacted sites were quenched with 35 μl of 1M ethanolamine-HCl, pH 8.5 (GE Healthcare, GE Healthcare, Cat. No. BR-1000-50). This procedure typically yielded 3,000-4,000 response units (RU) of coupled antibody.
(§2) The fusion polypeptides were diluted in HBS-EP buffer and flowed over ligand-coated sensor chips. The variant BCMA-Ig and surrogate control fusion proteins were injected at three concentrations (1.5 nM, 15 nM, and 150 nM at 30 μl/min for 2 minutes per association phase) in a single binding cycle, followed by a 20 minute incubation with HBS-EP buffer containing no protein at the same flow rate. A similar protocol was followed for Z-TACI-Ig, except that the injections were at 4.5 nM, 45 nM, and 450 nM.
(§3) Using available information from the structures and published literature, several residues in BAv8-10 were targeted for substitution with conserved as well as non-conserved residues and their effect on BAFF and APRIL binding was assessed by BIACORE.

[2] = biological target: T2, FLAG-tagged cynomolgous APRIL (cynomolgus monkey, UniProt A0ACM8R0G4 110-250 (rhesus entry)); assay: BIACORE SPR; NB = No binding
T2 construct: FLAG-tagged, expressed with TPA signal peptide; also called cyAPRIL
T2 sequence: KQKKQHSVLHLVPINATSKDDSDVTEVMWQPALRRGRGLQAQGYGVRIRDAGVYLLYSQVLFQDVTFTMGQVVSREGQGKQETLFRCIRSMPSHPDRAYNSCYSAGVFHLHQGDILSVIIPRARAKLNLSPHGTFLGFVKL
Protocol: as §1, §2, §3

FLAG-tagged human BAFF [3] = biological target: T1, FLAG-tagged human BAFF; assay: KinExA
Protocol: (§4) Equilibrium measurements were performed using FLAG-tagged, recombinant huBAFF and huAPRIL ligands. Fixed ligand concentrations of human BAFF or human APRIL were incubated with serial dilutions of the variant BCMA ECD-Ig fusion polypeptides, and free ligand was detected in a KINEXA 3200 Instrument. variant BCMA ECD-Ig fusion polypeptides were first diluted in equilibration buffer (1×PBS, pH 7.4, 1 mg/ml BSA) to a range of concentrations from 10 nM to 100 fM. The linear portion of the dilution series was typically 2-fold. Ligands were diluted in equilibration buffer to fixed concentrations ranging from 5 to 20 pM and then incubated with the variant BCMA-Ig dilutions in total reaction volumes ranging from 4.5 to 15 ml. Samples were incubated at room temperature for 48-72 hours to reach equilibrium. For each data point, a fresh column of 850 μl of bead slurry coated with Variant BAv-238475-Ig was introduced into the KINEXA flow cell. Equilibrated samples ranging from 1 to 5 ml reaction volume were injected at a flow rate of 0.25 ml/min. […] The DyLight 649 fluorescent signal was detected using the red filter set (620/30 nanometer excitation filter, 670/40 nanometer emission filter, 645 nanometer dichroic filter) on the KinExA instrument and converted to a voltage signal that was directly proportional to the concentration of free ligand in the equilibrated sample.
(§5) The standard kinetic exclusion assays and data analyses described above were performed on protein preparations of various variant BCMA ECD-Ig fusion polypeptides, as well as Z-TACI-Ig and [S40G]huBCMA ECD-Ig fusion polypeptides. FIG. 8A, FIG. 8B, and Table 4 summarize the binding data for representative variant BCMA ECD-Ig polypeptides and controls in molar concentrations of huBAFF or huAPRIL determined by KINEXA binding assays.

[4] = biological target: T3, FLAG-tagged recombinant human APRIL (human, UniProt O75888 105-250); assay: KinExA
T3 construct: KINEXA ligand; also called huAPRIL
T3 sequence: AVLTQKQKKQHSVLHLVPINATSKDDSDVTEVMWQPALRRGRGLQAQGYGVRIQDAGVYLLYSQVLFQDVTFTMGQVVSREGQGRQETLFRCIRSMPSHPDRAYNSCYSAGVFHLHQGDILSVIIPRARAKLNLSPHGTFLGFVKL
Protocol: as §4, §5

FLAG-tagged human BAFF [5] = biological target: T1, FLAG-tagged human BAFF; assay: KinExA; remark: listed apart in the source
Protocol: as §4
(§6) Table 5 provides the selectivities of exemplary variant BCMA polypeptides with respect to BAFF and APRIL.

[6] = biological target: T3, FLAG-tagged recombinant human APRIL; assay: KinExA; remark: listed apart in the source
Protocol: as §4, §6

FLAG-tagged human BAFF [7] = biological target: T1, FLAG-tagged human BAFF; assay: KinExA; remark: listed apart in the source
Protocol: as §4
(§7) The various fusion proteins described above were expressed and purified as described previously (Examples 2 and 3 for the CET1019AS based plasmids and Examples 7 and 8 for the pcDNA based plasmids). […] The BAv9-1-Ig Fc proteins typically exist in solution as a dimeric fusion protein. The purified fusion proteins were assayed for binding activity using BIACORE (Example 9) and KINEXA (Example 11) assays.

[8] = biological target: T3, FLAG-tagged recombinant human APRIL; assay: KinExA; remark: listed apart in the source
Protocol: as §4, §7

FLAG-tagged human BAFF [9] = biological target: T1, FLAG-tagged human BAFF; assay: BIACORE SPR
Protocol: as §1, §2, §7

[10] = biological target: T2, FLAG-tagged cynomolgous APRIL; assay: BIACORE SPR
Protocol: as §1, §2, §7

B1: BAv70-Ig (Fc fusion)
chain: AGQCSQNEYFDHLIRACQPCQLRCSSNTPPLTCQRYCNAGVTNSVKGTNA
notes: not shown: PIg18: human IgG2 Fc, Ser at Fc positions 4, 5, 11 (native Cys)
- binding result (FLAG-tagged human BAFF [1]): no binding (tested: 150 nM)
- binding result [2]: no binding (tested: 150 nM)

B2: BAv76-Ig (Fc fusion)
chain: B1 chain with Q18I, L22V, R23T
notes: as for B1
- binding result (FLAG-tagged human BAFF [1]): no binding (tested: 150 nM)
- binding result [2]: no binding (tested: 150 nM)

B3: BAv77-Ig (Fc fusion)
chain: B1 chain with I14V, Q18I, L22V, R23T
notes: as for B1
- binding result (FLAG-tagged human BAFF [1]): no binding (tested: 150 nM)
- binding result [2]: no binding (tested: 150 nM)

B4: BAv81-Ig (Fc fusion)
chain: B1 chain with H12P, I14V, Q18I, L22V
notes: also called BAv81 (2)-Ig; BAv81-pIg18; not shown: PIg18: human IgG2 Fc, Ser at Fc positions 4, 5, 11 (native Cys)
- Kd (FLAG-tagged human BAFF [3]): 0.246 pM
- fold improvement over control (FLAG-tagged human BAFF [3]): 917 fold
- Kd [4]: 364 pM
- fold improvement over control [4]: 0.00044 fold
- Selectivity for huBAFF (KD APRIL/KD BAFF) (FLAG-tagged human BAFF [5]): 1480 ratio
- Selectivity for huAPRIL (KD BAFF/KD APRIL) [6]: 0.001 ratio
- Kd (FLAG-tagged human BAFF [7]): 0.246 pM
- Kd [8]: 364 pM
- Kd (FLAG-tagged human BAFF [9]): 8.31 pM
- Kd [10]: 2060 pM

B5: BAv83-Ig (Fc fusion)
chain: B1 chain with H12P, I14V, Q18I, L22I
notes: also called BAv83 (2)-Ig; BAv83-pIg18; not shown: PIg18: human IgG2 Fc, Ser at Fc positions 4, 5, 11 (native Cys)
- Kd (FLAG-tagged human BAFF [3]): 0.254 pM
- fold improvement over control (FLAG-tagged human BAFF [3]): 890 fold
- Kd [4]: 114 pM
- fold improvement over control [4]: 0.0014 fold
- Selectivity for huBAFF (KD APRIL/KD BAFF) (FLAG-tagged human BAFF [5]): 449 ratio
- Selectivity for huAPRIL (KD BAFF/KD APRIL) [6]: 0.002 ratio
- Kd (FLAG-tagged human BAFF [7]): 0.254 pM
- Kd [8]: 114 pM
- Kd (FLAG-tagged human BAFF [9]): 8.09 pM
- Kd [10]: 707 pM

B6: BAv85-Ig (Fc fusion)
chain: B1 chain with I14V, Q18I, L22A
notes: also called BAv85 (2)-Ig; BAv85-pIg18; not shown: PIg18: human IgG2 Fc, Ser at Fc positions 4, 5, 11 (native Cys)
- Kd (FLAG-tagged human BAFF [3]): 0.0847 pM
- fold improvement over control (FLAG-tagged human BAFF [3]): 2660 fold
- Kd [4]: 132 pM
- fold improvement over control [4]: 0.0012 fold
- Selectivity for huBAFF (KD APRIL/KD BAFF) (FLAG-tagged human BAFF [5]): 1560 ratio
- Selectivity for huAPRIL (KD BAFF/KD APRIL) [6]: 0.001 ratio
- Kd (FLAG-tagged human BAFF [7]): 0.085 pM
- Kd [8]: 132 pM
- Kd (FLAG-tagged human BAFF [9]): 8.03 pM
- Kd [10]: 773 pM
